Measured values taken from patent US20230242601A1, “PEPTIDE USED TO PREVENT OR TREAT SYNUCLEINOPATHY” (TOHOKU UNIVERSITY, priority 2020, published 2023).
Blank lines part the entries; values can stand above or below the binder they belong to.

Target: FABP3 fused with a His-tag at the N-terminus
Assay: QCM, peptide added to immobilised FABP3

Sequence of FABP3 fused with a His-tag at the N-terminus (P05413 2-133): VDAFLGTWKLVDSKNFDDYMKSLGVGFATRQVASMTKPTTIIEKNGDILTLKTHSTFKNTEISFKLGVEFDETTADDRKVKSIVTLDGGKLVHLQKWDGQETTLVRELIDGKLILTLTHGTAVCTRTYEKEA

- Kd: 200 pM
B1: SynP130-140 peptide (peptide)
peptide: EEGYQDYEPEA

- fold stronger binding affinity against the natural SynP130-140: 2 fold
B2: SynP130-140 Y133F/Y136F (peptide)
peptide: EEGFQDFEPEA

- Kd: 100 pM
- fold stronger binding affinity against the natural SynP130-140: 2 fold
B3: SynP130-140 Y133F (peptide)
peptide: EEGFQDYEPEA
